Data reported in the DeepSol protein solubility set.

Assay: soluble on expression in E. coli; label from the status in PepcDB or PDB records

Sequence | soluble on expression in E. coli
MSSEIAYSNTNTNTENENRNTGAGVDVNTNANANANATANATANATANATAELNLPTVDEQRQYKVQLLLHINSILLARVIQMNNSLQNNLQNNINNSNNNNIIRIQQLISQFLKRVHANLQCISQINQGVPSAKPLILTPPQLANQQQPPQDILSKLYLLLARVFEIW | not soluble
MILFPQNEDTVMSEMVAFRQGTSMPSRETILHYVVETVNQITELEPALHLLPWSGVNSAIYEQRFAQCYDEGLCAAQTSAPNVPQGILPSTDWAQGIGLLCFAAGYMSAGERPLTHNQLCDFVKQAAVGLSPIEGEAASGFSTVRSIALPVFRRLQRDGHASRVLLLQTLLHLVAWKSASQYARQQAQRLLWMGGILGEGGEHSLLVLDKALREEAVGEKSLPALLIFTSFLAHFPAGPVFID | not soluble
MSLRPKMADIARMAGVDISTVSRALAGSPRVTKETRALIDQIVRDTGYVLNEAARNLRDGRANQVLVIVSDIAAPFYSDVVQGIVETLAERGINVLLGVTLRQAKREAKLGKQLLTGVVDGIITVTGSVPKPILNMQGFDRKVVAISRPVPHEGVTCVTIDNYAAAKEVMAHLYAMGHRRIVHIGGPNHSETYRDRSAAYVDFMRDHGLVELTNVRSTDSFNDDAESGFEIMKSMLNDGSRPTAVFCATDELAISAMAAARQANRNIPGDVSFFGFDDLKLAGLMHPPLSTVSVPRFEMGRRGAEELFRQIYKGEMPSTKIVLEHRLVLRDSVAKEGHHHHHH | not soluble
MPLTDTPPSVPQKPRRGRPRGAPDASLAHQSLIRAGLEHLTEKGYSSVGVDEILKAARVPKGSFYHYFRNKADFGLALIEAYDTYFARLLDQAFLDGSLAPLARLRLFTRMAEEGMARHGFRRGCLVGNLGQEMGALPDDFRAALIGVLETWQRRTAQLFREAQACGELSADHDPDALAEAFWIGWEGAILRAKLELRPDPLHSFTRTFGRHFVTRTQE | soluble
MAFADIVRSVENRTNAATLNWSIKNGWKPEVTGFSGYGSGRRVRVLARVLMSNPENLLVDAPSQSITQQAQRGWRQFFTIQVPNLPVTVTVGGKTVTSSTNDNGYVDLLVEDHNLDPGWHTIQIQAEGSTPAEARVLIVENTARIGLISDIDDTIMVTWLPRALLAAWNSWVLHTKTRKPVPGMNRFYEELLKDHPDAPVFYLSTGAWNTFETLQEFINKHALPDGPMLLTDWGPTPTGLFRSGQEHKKVQLRNLFIEYPDMKWILVGDDGQHDPLIYGEAVEEHPNRIAGVAIRELSPGEHVLSHGTTASLSTITTNGGQGVPVVHGRDGYELLQRYETKPFALEHHHHHH | soluble
MYSFPNSFRFGWSQAGFQSEMGTPGSEDPNTDWYKWVHDPENMAAGLVSGDLPENGPGYWGNYKTFHDNAQKMGLKIARLNVEWSRIFPNPLPRPQNFDESKQDVTEVEINENELKRLDEYANKDALNHYREIFKDLKSRGLYFILNMYHWPLPLWLHDPIRVRRGDFTGPSGWLSTRTVYEFARFSAYIAWKFDDLVDEYSTMNEPNVVGGLGYVGVKSGFPPGYLSFELSRRAMYNIIQAHARAYDGIKSVSKKPVGIIYANSSFQPLTDKDMEAVEMAENDNRWWFFDAIIRGEITRGNEKIVRDDLKGRLDWIGVNYYTRTVVKRTEKGYVSLGGYGHGCERNSVSLAGLPTSDFGWEFFPEGLYDVLTKYWNRYHLYMYVTENGIADDADYQRPYYLVSHVYQVHRAINSGADVRGYLHWSLADNYEWASGFSMRFGLLKVDYNTKRLYWRPSALVYREIATNGAITDEIEHLNSVPPVKPLRH | soluble
MNDVSKASLPKAIFLMGPTASGKTALAIELRKVLPVELISVDSALIYRGMDIGTAKPNADELKAAPHRLLDIRDPSQAYSAADFRRDALAQMAEITAAGRIPLLVGGTMLYFKALLEGLSPLPSADPEVRSRIEQQAAELGWEALHQQLQEIDPVAAARIHPNDPQRLSRALEVFFISGKTLTELTQTSGDALPYQVHQFAIAPASRELLHQRIELRFHQMLASGFEAEVRALFARGDLHTDLPSIRCVGYRQMWSYIEGEISYDEMVYRGVCATRQLAKRQMTWLRGWEGVRWLDSENPDRARKEVLQVVGAIADMAGDPLEHHHHHH | not soluble
MAACRALKAVLVDLSGTLHIEDAAVPGAQEALKRLRGASVIIRFVTNTTKESKQDLLERLRKLEFDISEDEIFTSLTAARSLLERKQVRPMLLVDDRALPDFKGIQTSDPNAVVMGLAPEHFHYQILNQAFRLLLDGAPLIAIHKARYYKRKDGLALGPGPFVTALEYATDTKATVVGKPEKTFFLEALRGTGCEPEEAVMIGDDCRDDVGGAQDVGMLGILVKTGKYRASDEEKINPPPYLTCESFPHAVDHILQHLLAENLYFQ | soluble
NATNRRDTVLAAMVDAGKLTKSQAKEAASIGMKNRLADTYAGKINDYRYPSYFDAVVNEAIDTYGISEKDIVNNGY | not soluble
